The values below come from patent publication US20240352143A1 (Incyte, published 2024).

One assay concerns the target T1, recombinant human CD73 (human, UniProt P21589 27-549).
T1 construct: Soluble recombinant CD73 (BPS Bioscience stock in the SPR); also called rhuCD73; human CD73, open conformation
T1 sequence: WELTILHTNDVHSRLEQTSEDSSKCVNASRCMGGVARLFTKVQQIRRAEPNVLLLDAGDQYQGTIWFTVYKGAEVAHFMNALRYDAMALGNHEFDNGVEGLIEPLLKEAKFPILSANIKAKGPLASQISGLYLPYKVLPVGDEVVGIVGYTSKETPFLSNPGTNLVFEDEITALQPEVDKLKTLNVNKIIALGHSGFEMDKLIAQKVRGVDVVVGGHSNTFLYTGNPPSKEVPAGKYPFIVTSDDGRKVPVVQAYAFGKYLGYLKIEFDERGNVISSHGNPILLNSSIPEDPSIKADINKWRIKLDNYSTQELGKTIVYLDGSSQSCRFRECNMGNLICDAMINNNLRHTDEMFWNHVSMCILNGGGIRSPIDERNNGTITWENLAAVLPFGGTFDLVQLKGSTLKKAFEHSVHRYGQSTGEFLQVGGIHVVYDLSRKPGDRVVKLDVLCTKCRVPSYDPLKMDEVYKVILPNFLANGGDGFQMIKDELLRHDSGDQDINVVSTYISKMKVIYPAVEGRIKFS
The experiment in a line: enzyme inhibition assay with recombinant full length CD73, adenosine by LC-MS, mixed-inhibition model. The method, then: Briefly, the inhibition potencies of the agents were measured in an enzyme assay using adenosine ¹³C₁₀, ¹⁵N₅ 5′-monophosphate sodium salt solution (650676, Sigma) as substrate and detecting product, adenosine by LC-MS. Antibody agents were serially diluted in buffer and a volume of 5 μL was transferred to a 96-well plate. 20 μL of 0.5 μM recombinant CD73 in assay buffer (25 mM Tris, 5 mM MgCl₂, 0.005% Brij35 pH 7.5) was added to the plate and pre-incubated for 2 hours at 25° C. The assay was initiated by the addition of a 25 μL solution containing AMP at various concentrations. The reactions were run for 0.5 hr at 25° C. and then quenched with 50 μL of methanol.

In assay [1] the target is T2, cell surface CD73 on MDA-MB-231 and A375 cells (human, UniProt P21589 27-549).
T2 construct: A375: moderate level; also called cellular CD73
T2 sequence: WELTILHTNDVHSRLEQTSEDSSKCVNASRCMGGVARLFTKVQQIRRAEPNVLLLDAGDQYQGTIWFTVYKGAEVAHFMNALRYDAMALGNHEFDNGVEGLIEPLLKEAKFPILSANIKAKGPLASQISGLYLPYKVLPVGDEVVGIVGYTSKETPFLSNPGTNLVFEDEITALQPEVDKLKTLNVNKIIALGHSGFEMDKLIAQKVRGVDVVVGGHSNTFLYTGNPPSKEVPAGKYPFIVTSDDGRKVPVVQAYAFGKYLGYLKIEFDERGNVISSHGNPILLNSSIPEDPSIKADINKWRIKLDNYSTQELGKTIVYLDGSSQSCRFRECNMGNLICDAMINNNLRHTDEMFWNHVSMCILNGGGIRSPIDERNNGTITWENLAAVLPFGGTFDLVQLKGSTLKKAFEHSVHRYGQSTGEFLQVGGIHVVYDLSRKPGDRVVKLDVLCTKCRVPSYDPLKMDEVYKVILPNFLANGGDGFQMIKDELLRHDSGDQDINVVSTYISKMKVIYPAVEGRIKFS
The experiment in a line: flow cytometry on MDA-MB-231 cells, antibody 30 min on ice, PE-conjugated secondary antibody, GMFI. The method, then: The cells were stained with the indicated concentration of antibodies for 30 minutes on ice (FIG. 2A and FIG. 2B). Next, the cells were washed and stained using goat anti-mouse secondary conjugated to phycoerythrin (PE) for 30 minutes on ice. The cells were then washed and analyzed by flow cytometry. Geometric mean fluorescence intensity (GMFI) of CD73 staining was graphed (FIG. 2A and FIG. 2B).
A general note: A flow cytometer gives signals particle by particle.

B1: HzCL25 (antibody, human IgG1, kappa, N297A, V domains shown)
VH: EVQLVQSGAEVKKPGESLKISCKGSGYTFTSYGLSWVRQMPGKGLEWMGEIYPGSGNTYYNEKFKGQVTISADKSISTAYLQWSSLKASDTAMYYCARYDYLGSSYGFDYWGAGTTVTVSS
VL: DIVMTQSPDSLAVSLGERATINCKASQDVSTAVAWYQQKPGQPPKLLIYSASYRYSGVPDRFSGSGSGTDFTLTISSLQAEDVAVYYCQQHYNTPYTFGGGTKLEIKR
notes: Humanized IgG1/kappa with N297A (EU); also called HzCL25 IgG; humanized CL25
On to B1, for which the Ki in the assay with recombinant human CD73 was 300 pM.

B2: CL25_hu_8-5 (antibody, V domains shown)
VH: QVQLVQSGAEVKKPGASVKVSCKASGYTFTSYGLSWVRQATGQGLEWMGEIYPGSGNTYYNEKFKGRVTMTRNTSISTAYMELSSLRSEDTAVYYCARYDYLGSSYGFDYWGAGTTVTVSS
VL: DIVMTQSPDSLAVSLGERATINCKASQDVSTAVAWYQQKPGQPPKLLIYSASYRYSGVPDRFSGSGSGTDFTLTISSLQAEDVAVYYCQQHYNTPYTFGGGTKLEIK
notes: Humanized CL25 variant
As to B2, the “EC50 (read off the curve)” value in assay [1] is roughly 0.06 µg/mL.

Usually Ki stands for a dissociation constant, usually derived from enzyme kinetics or from competition with a known ligand. Broadly, the EC50 (read off the curve) is the concentration giving half of the maximal effect. Read a low EC50 (read off the curve) as a more potent agent.
